Test results: US20190248888A1, “METHODS OF LOWERING BLOOD GLUCOSE LEVELS” (Regeneron Pharmaceuticals, Inc., priority 2016, published 2019)

Assays:
Slc38a5 in α-cells = experiment: Slc38a5 RNA in situ hybridization and immunofluorescence of pancreas sections; type: in vivo, mouse
Text: Formalin fixed mouse pancreatic sections were permeabilized and hybridized with custom made mRNA probes to glucagon and mouse Slc38a5 (ACD BIO). Following probe hybridization and amplification, Slc38a5 mRNA was detected using red chromogen and glucagon mRNA with green chromogen (RNAscope 2.5 HD Duplex Reagent Kit) and images were obtained using a Zeiss Axio Scan.Z1 slide scanner (Zeiss).

C57BL/6 mice = experiment: GCGR antibody with or without rapamycin in C57BL/6 mice: blood chemistry, islet cell mass; details: 21 days
Description: C57BL/6 mice (males, 10 weeks of age, Taconic) were housed (5 mice per cage) in a controlled environment (12-h light/dark cycle, 22±1° C., 60-70% humidity) and fed ad libitum with standard chow (Purina Laboratory Rodent Diet 5001, LabDiet). Mice were assigned to study groups (n=10) based on baseline blood glucose levels. Mice were injected subcutaneously (sc) with GCGR antibody (3 mg/kg) or the control antibody (3 mg/kg) alone or in combination with rapamycin (10 mg/kg) or the vehicle. For the duration of the study, GCGR or control antibody was administered once weekly, whereas rapamycin or the vehicle was administered daily. Blood was collected from the tail for glucose measurements without fasting. Plasma samples were collected via submandibular bleeds at baseline and on day 21 after dosing for analysis of hormones and total amino acid levels. Seven days after the last antibody administration (day 21), mice were sacrificed, organs weighed and pancreata collected.
Pancreas α- and β-cell mass was measured as described elsewhere (Okamato et al., 2015, Endocrinology 156:2781-2794). α- and PP cell mass were determined using anti-somatostatin antibody (Sigma-Aldrich; #SAB4502861) and anti-pancreatic polypeptide antibody (Sigma-Aldrich; #SAB2500747). For quantifying Slc38a5 positive α-cells, pancreas sections were stained with human anti-glucagon and rabbit anti-Slc38a5 (Abcam; #ab72717) primary antibodies, and Alexa Fluor 488 labeled donkey anti-rabbit (Jackson ImmunoResearch; #711-545-152) and Alexa Fluor 594 donkey anti-human (Jackson ImmunoResearch; #709-585-149) secondary antibodies. For quantifying proliferating cells, Alexa Fluor 647 labeled anti-Ki67 (Abcam; #ab194724) was used in combination with anti-glucagon and anti-Slc38a5 antibodies. Slides were scanned using a Zeiss Axio Scan.Z1 slide scanner (Zeiss) and the images were analyzed using the Halo (Indica Labs).
Blood glucose was determined using ACCU-CHEK® Compact Plus (Roche Diagnostics). Plasma glucagon and insulin levels were determined using glucagon and mouse insulin ELISA (Mercodia). Plasma total amino acid levels were measured using L-Amino Acid Quantification Kit (Sigma-Aldrich).

B1: α-GCGR: potent monoclonal GCGR blocking antibody, HCVR/LCVR SEQ ID NOs: 86/88 (antibody, V domains shown)
VH: EVQLVESGGGLVQPGGSLRLSCAASGFTFSNYLMNWVRQAPGKGLEWLANIQEDGIEKYYVDSVKGRFTISRDNAKNSLYLQMNSLRAEDTAVYYCAREPSHYDILTGYDYYYGMDVWGQGTTVTVS
VL: DIQMTQSPSSLSASVGDRVTITCRASQGIRNDLGWYQQKPGKAPKRLIYAASSLQSGVPSRFSGSGSGTEFILTVSSLQPEDFATYYCLQYNSNPFTFGPGTKVDIK
Slc38a5 immunostaining of pancreas sections (Slc38a5 in α-cells; mice, 3 mg/kg, 21 days): detected in a subset of glucagon-positive cells | Slc38a5 mRNA expression in α-cells (RNA ISH) (Slc38a5 in α-cells; pancreas sections of treated mice): upregulation | blood glucose levels (C57BL/6 mice; C57BL/6 mice, 3 mg/kg weekly): reduce | plasma amino acid levels (C57BL/6 mice; GCGR antibody 3 mg/kg): significantly increased | α-cell size (C57BL/6 mice; GCGR antibody 3 mg/kg): slightly increased
